Experiment [1] concerns the target GST-fused pK15 cytoplasmic tail (pK15 CT WT), phosphorylated in vitro by Src (UniProt Q9QR69). The experiment in a line: AlphaLISA. Conditions: read off a plot. On the technique in general: Alpha assays give light when donor and acceptor beads are brought close together.
Experiment [2] deals with GST-pK15 CT N2 truncation mutant, phosphorylated in vitro by 2xStrep-Src (UniProt Q9QR69). The experiment is described as follows: AlphaLISA. Conditions: parent: est. 17000; read off a plot.
The test system of experiment [3] is PLCγ1 tSH2 domain (Src-mediated phosphorylation, Y^783). The experiment is described as follows: in vitro Src kinase assay, PLCγ1 tSH2 Y783 phosphorylation. Type of experiment: biochemical. Conditions: 0.6 μM tSH2, 0.085 μM Src, 1.25–5 μM peptide or fixed 5.0 μM; 37°C; 1 hour or 45 min (method); pY783 Western blot. On the procedure:
Fig 7 The pK15 CT domain enhances Src-mediated phosphorylation of the PLCγ1 tSH2 domain. (A) The purified PLCγ1 tSH2 domain (0.6 μM) was incubated with limiting amounts (0.085 μM) of recombinant purified Src kinase expressed in insect cells in the presence of increasing concentrations (1.25–5 μM) of phosphorylated peptides representing the last 12 (pK15 12mer) or 35 (pK15 35mer) amino acids of the pK15 cytoplasmic domain for 1 hour at 37°C. The reaction was stopped using SDS sample buffer and analysed by SDS-PAGE and Western blot using an antibody to the PLCγ1 pY^783 residue (top panel) or to the His tag on the recombinant tSH2 domain (bottom panel). (B) Same as above, except that a fixed concentration (5.0 μM) of the 12mer peptide, the 35mer peptide or the pK15 truncation construct GST-pK15 CT^N2 [51] were used. The increased phosphorylation of the tSH2 domain in the presence of the 35mer peptide and pK15 CT^N2 can be seen. (C) Increasing concentrations of the phosphorylated pK15 12mer peptide were used to inhibit the increased src-mediated phosphorylation of tSH2 induced by 2.5 μM of the pK15 35mer peptide. Experimental conditions were as in panel A.
To test the impact of a pK15 CT fragment (pK15 CT^N2) or phosphorylated pK15 peptides representing the last 12 (DDLp[…]) or 35 ([…]pYEEVLFRN) amino acids of pK15 CT on the Src-mediated phosphorylation of the PLCγ1 tSH2 domain, GST-pK15CT^N2 was first phosphorylated with Src in vitro as described in the preceding paragraph. Phosphorylated GST-pK15 CT^N2 or the phosphorylated pK15 peptides, suspended in 50 mM Tris pH7.4, 300 mM NaCl, 1 mM DTT, were then added to the purified recombinant tSH2 domain (0.6 μM) together with a limiting amount of recombinant Src kinase (0.085 μM) in kinase buffer (20 mM Tris pH7.4, 20 mM NaCl, 1 mM DTT, 10 mM MgCl2, 0.2 mM ATP, 0.5 mM Sodium orthovanadate, 0.5 mM β-glycerophosphate) and the reaction allowed to proceed for 45 min. The reaction mix was then analysed by Western blot using an antibody to the phosphorylated Y^783 in the linker region of the PLCγ1 tSH2 domain and an antibody to the 5x His tag. To test the inhibitory effect of the phosphorylated 12mer pK15 peptide on the enhancement of PLCγ1 tSH2 domain phosphorylation induced by the pK15 35mer peptide, increasing concentrations (1.25–5.0 μM) of the 12mer peptide were added to a reaction mix containing the purified recombinant tSH2 domain (2.5 μM), the phosphorylated pK15 35mer (2.5 μM), and recombinant Src kinase (0.085 μM). Following a 45 min incubation at 37°C, the reaction mixture was analysed by Western blot as above.

The target in experiment [4] is T1, PLCγ1 tSH2 R694L (aa 545-790) (UniProt P19174 545-790, R694L).
T1 construct: source: E. coli BL21(DE3), purified (HisTrap, 3C cleavage, SEC)
T1 sequence (looked up): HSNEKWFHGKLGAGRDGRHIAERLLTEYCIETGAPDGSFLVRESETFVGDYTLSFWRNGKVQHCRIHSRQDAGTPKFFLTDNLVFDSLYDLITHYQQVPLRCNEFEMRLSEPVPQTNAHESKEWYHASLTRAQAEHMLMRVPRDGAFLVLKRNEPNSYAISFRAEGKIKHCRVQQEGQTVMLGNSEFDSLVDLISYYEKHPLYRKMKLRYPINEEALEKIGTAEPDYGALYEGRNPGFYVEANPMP
The experiment in a line: microfluidic diffusional sizing (Fluidity One-W); 200 nM 5,6-FAM peptide held constant, PLCγ1 domains varied from 0 nM to 8000 nM, room temperature, 100 mM MES, 150 mM NaCl, 3 mM TCEP, pH 6.5; hydrodynamic radius fitted; triplicate. Conditions: both partners purified.

Experiment [5] has as its target T2, PLCγ1 tSH2 domain (aa 545-790) (UniProt P19174 545-790).
T2 construct: also called WT tSH2; source: E. coli BL21(DE3), purified (HisTrap, 3C cleavage, SEC)
T2 sequence (looked up): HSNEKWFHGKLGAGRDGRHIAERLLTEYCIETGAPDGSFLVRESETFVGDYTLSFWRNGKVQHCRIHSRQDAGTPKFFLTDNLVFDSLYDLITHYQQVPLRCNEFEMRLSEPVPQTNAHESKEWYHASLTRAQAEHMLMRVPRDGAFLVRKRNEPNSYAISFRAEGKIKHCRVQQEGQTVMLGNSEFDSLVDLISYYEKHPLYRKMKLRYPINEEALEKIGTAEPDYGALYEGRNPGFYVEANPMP
The description is as above. Conditions: both partners purified.

Experiment [6] has as its target T3, PLCγ1 cSH2 domain (aa 668-790) (UniProt P19174 668-790).
T3 construct: PLCγ1 C-terminal SH2 domain with the cSH2-SH3 linker, residues 668-790; 15N-labelled for the NMR titration; also called cSH2 (668–790); source: E. coli BL21(DE3), purified (HisTrap, 3C cleavage, SEC)
T3 sequence (looked up): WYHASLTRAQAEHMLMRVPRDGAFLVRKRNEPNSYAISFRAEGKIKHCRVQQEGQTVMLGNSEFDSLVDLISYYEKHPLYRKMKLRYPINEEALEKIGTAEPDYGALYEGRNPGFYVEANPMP
Described as above. Conditions: both partners purified.

Experiment [7] has as its target T4, PLCγ1 nSH2 domain (aa 545-662) (UniProt P19174 545-662).
T4 construct: 15N-labelled for the NMR titration; source: E. coli BL21(DE3), purified (HisTrap, 3C cleavage, SEC)
T4 sequence (looked up): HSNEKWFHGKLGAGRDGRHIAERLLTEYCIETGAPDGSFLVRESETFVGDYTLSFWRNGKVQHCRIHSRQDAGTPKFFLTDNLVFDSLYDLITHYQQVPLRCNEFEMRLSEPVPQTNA
The experiment is described as above. Conditions: both partners purified.

In experiment [8] the target is T5, PLCγ1 tSH2 R586L (aa 545-790) (UniProt P19174 545-790, R586L).
T5 construct: source: E. coli BL21(DE3), purified (HisTrap, 3C cleavage, SEC)
T5 sequence (looked up): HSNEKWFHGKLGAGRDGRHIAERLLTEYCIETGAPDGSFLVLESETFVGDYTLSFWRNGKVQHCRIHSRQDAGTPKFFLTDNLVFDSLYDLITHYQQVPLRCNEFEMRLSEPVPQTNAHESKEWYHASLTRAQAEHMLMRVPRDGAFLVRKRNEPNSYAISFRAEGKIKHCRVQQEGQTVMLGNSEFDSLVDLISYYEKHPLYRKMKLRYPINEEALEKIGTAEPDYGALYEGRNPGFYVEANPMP
The experiment is described as above. Conditions: both partners purified.

Experiment [9] addresses T6, GST-fused pK15 cytoplasmic tail (pK15 CT WT), phosphorylated in vitro by Src, Q9QR69.
T6 chain: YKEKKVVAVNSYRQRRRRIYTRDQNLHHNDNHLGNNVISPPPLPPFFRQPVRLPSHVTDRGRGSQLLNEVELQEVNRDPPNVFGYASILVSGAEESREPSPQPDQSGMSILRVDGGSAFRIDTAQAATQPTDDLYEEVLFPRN
The experiment is described as follows: AlphaLISA. Conditions: chain shown with the change;, read off a plot.

Experiment [10] has as its target T7, GST-pK15 CT N2 truncation mutant, phosphorylated in vitro by 2xStrep-Src, Q9QR69.
T7 chain: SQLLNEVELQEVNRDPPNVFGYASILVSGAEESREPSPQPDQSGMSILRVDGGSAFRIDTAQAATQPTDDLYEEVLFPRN
The experiment is described as follows: AlphaLISA. Conditions: chain shown with the change;, read off a plot.

Non-standard residues stand in square brackets, D forms with d. No end group written: not given here. pY = N[C@@H](Cc1ccc(OP(=O)(O)O)cc1)C(=O)O

The term Kd denotes the constant that tells how readily two partners part at equilibrium. A high value points to lower affinity.

With “His-tagged purified PLCγ1 SA (γ-specific array) R694L”, the response in [1] (parent: est. 4000) is 1400.

Regarding “His-tagged purified PLCγ1 tandem SH2 (tSH2) domain R586L; R694L”, the response in experiment [1] (parent: est. 13000) came to 350.

“His-tagged purified PLCγ1 tandem SH2 (tSH2) domain R694L”: the response in experiment [1] (parent: est. 13000) was determined as 850.

For the molecule “His-tagged purified PLCγ1 cSH2 domain R694L”, the response came to 1000 in [1] (parent: est. 19000) and 250 in experiment [2].

Take “His-tagged purified PLCγ1 SA (γ-specific array) R586L; R694L”: the response in experiment [1] (parent: est. 4000) is 700.

On to “SILRVDGGSAFRIDTAQAATQPTDDLpYEEVLFRN [pK15 35mer, phosphorylated pK15 peptide corresponding to the last 35 amino acids of pK15 CT]”, for which, in experiment [3], the “effect on Src-mediated phosphorylation of PLCγ1 tSH2” value was “enhanced the Src-mediated phosphorylation of the PLCγ1 tSH2 domain in a dose dependent manner”.

B1: 5,6-FAM-labelled phosphorylated pK15 12mer peptide (peptide)
peptide: {5,6‑FAM}-DDL[pY]EEVLFPRN
notes: last 12 residues of KSHV pK15 cytoplasmic tail; also called 5,6-FAM-labelled pK15 (12mer); phosphorylated pK15 peptide; source: synthetic peptide, bought: Caslo ApS
For the molecule B1, the Kd in experiment [4] is 6320 ± 475 nM; in [5], 1500 ± 450 nM; in [6], 166 ± 30 nM; in [7], 180 ± 43 nM; in experiment [8], 440 ± 77 nM.

B2: His-tagged purified PLCγ1 SA (γ-specific array) R586L (protein)
chain: SIKNGILYLEDPVNHEWYPHYFVLTSSKIYYSEETSSDQGNEDEEEPKEVSSSTELHSNEKWFHGKLGAGRDGRHIAERLLTEYCIETGAPDGSFLVLESETFVGDYTLSFWRNGKVQHCRIHSRQDAGTPKFFLTDNLVFDSLYDLITHYQQVPLRCNEFEMRLSEPVPQTNAHESKEWYHASLTRAQAEHMLMRVPRDGAFLVRKRNEPNSYAISFRAEGKIKHCRVQQEGQTVMLGNSEFDSLVDLISYYEKHPLYRKMKLRYPINEEALEKIGTAEPDYGALYEGRNPGFYVEANPMPTFKCAVKALFDYKAQREDELTFIKSAIIQNVEKQEGGWWRGDYGGKKQLWFPSNYVEEMVNPVALEPEREHLDENSPLGDLLRGVLDVPACQIAIRPEGKNNRLFVFSISMASVAHWSLDVAADSQEELQDWVKKIREVAQ
Regarding B2, the values for the response in experiment [9] (parent: est. 4000) and in [10] (parent: est. 700) were 3800 and 300, respectively.

B3: His-tagged purified PLCγ1 tandem SH2 (tSH2) domain R586L (protein)
chain: HSNEKWFHGKLGAGRDGRHIAERLLTEYCIETGAPDGSFLVLESETFVGDYTLSFWRNGKVQHCRIHSRQDAGTPKFFLTDNLVFDSLYDLITHYQQVPLRCNEFEMRLSEPVPQTNAHESKEWYHASLTRAQAEHMLMRVPRDGAFLVRKRNEPNSYAISFRAEGKIKHCRVQQEGQTVMLGNSEFDSLVDLISYYEKHPLYRKMKLRYPINEEALEKIGTAEPDYGALYEGRNPGFYVEANPMP
In the case of B3, the response in experiment [9] (parent: est. 13000) is 9800; in experiment [10] (parent: est. 14000), 12000.
